Measurements published in US20150306238A1, “BACTERIA TARGETING NANOPARTICLES AND RELATED METHODS OF USE” (THE REGENTS OF THE UNIVERSITY OF MICHIGAN, priority 2012, published 2015).
Values joined by “and” are separate entries in the source; they are usually repeats but may differ in a detail not shown here. Equal values may be shown once. Read-outs that look alike come from different tables or passages of the source.

Tests used:
[1] = target: N^α-Ac-Lys-(D)-Ala-(D)-Ala peptide; assay: SPR; ratio against free vancomycin
[2] = target: N^α-Ac-Lys-(D)-Ala-(D)-Lac peptide; assay: SPR; ratio against free vancomycin
[3] = target: N^α-Ac-Lys-(D)-Ala-(D)-Ala peptide; assay: SPR (Biacore X), peptide immobilised on CM5 chip, Langmuir fit
[4] = target: N^α-Ac-Lys-(D)-Ala-(D)-Lac peptide; assay: as above
[5] = target: N^α-Ac-Lys-(D)-Ala-(D)-Ala peptide; settings: vancomycin to (D)-Ala-(D)-Ala, literature; cited from earlier work
[6] = system: N^α-Ac-Lys-(D)-Ala-(D)-Lac peptide; assay: SPR binding to vancomycin-resistant bacterial cell wall model
Description: SPR spectroscopy is a real-time kinetic method that allows the measurement of the on-rate constant (kon), the off-rate constant (koff), and equilibrium dissociation constant KD (=koff/kon) for receptor-ligand interactions occurring on the surface (see, e.g., Rao, J.; et al., Chem. Biol. (Cambridge, Mass., U.S.) 1999, 6, 353-359; Rao, J.; et al., J. Am. Chem. Soc. 1999, 121, 2629-2630; Hong, S.; et al., Chem. Biol. (Cambridge, Mass., U.S.) 2007, 14, 107-115; Li, M.-H.; Eur. J. Med. Chem. 2012, 47, 560-572; Plantinga, A.; et al., ACS Med. Chem. Lett. 2011, 2, 363-367; Cooper, M. A.; et al., Bioorg. Med. Chem. 2000, 8, 2609-2616; each herein incorporated by reference in its entirety)). The experiments employed SPR spectroscopy to determine the binding constant KD for dendrimer-based multivalent vancomycin conjugates to the cell wall ligands immobilized on the chip surface as a model for the bacterial cell surface. […]

Staphylococcus aureus = assay: Turbidity assay (bacterial cell lysis / growth); type: cell-based; settings: OD at 650 nm, 24 h
Description: This example describes bacterial cell lysis experiments. Whether the binding of the vancomycin-conjugated dendrimer to the bacterial membrane causes bacterial cell lysis was next investigated. […] S.; et al., Antimicrob. Agents Chemother. 2009, 53, 3375-3383; herein incorporated by reference in its entirety)). On the other hand, the lack of such a mechanism would be more desirable for the diagnostic applications that aim for bacterial detection, isolation, and enumeration of whole cells. To determine the degree of cell lysis, a turbidity assay was employed. This assay quantitates the bacterial population in a culture by measuring the optical density (OD at 650 nm), and the cell populations are correlated with the degree of lysis (see, e.g., Chung, H. S.; et al., Proc. Natl. Acad. Sci. U.S.A. 2009, 106, 21872-21877; Lunde, C. S.; et al., Antimicrob. Agents Chemother. 2009, 53, 3375-3383; each herein incorporated by reference in its entirety)). Effects of the conjugates I-VI, VIII, IX on the cell growth rate were determined using the same Gram-positive strain Staphylococcus aureus and were presented as a function of the inhibitor concentration (FIGS. 12 and 13). […]
Turbidity assay. […] After incubation of the plates at 37° C. for 24 h, bacterial growth was examined by optical microscopy and reading an optical density (O. D.) value at 650 nm by an ELISA plate reader.

[7] = system: N^α-Ac-Lys-(D)-Ala-(D)-Ala peptide; assay: SPR binding to vancomycin-susceptible bacterial cell wall model; settings: for Kd: (D)-Ala-(D)-Ala surface
Description: SPR spectroscopy is a real-time kinetic method that allows the measurement of the on-rate constant (kon), the off-rate constant (koff), and equilibrium dissociation constant KD (=koff/kon) for receptor-ligand interactions occurring on the surface (see, e.g., Rao, J.; et al., Chem. Biol. (Cambridge, Mass., U.S.) 1999, 6, 353-359; Rao, J.; et al., J. Am. Chem. Soc. 1999, 121, 2629-2630; Hong, S.; et al., Chem. Biol. (Cambridge, Mass., U.S.) 2007, 14, 107-115; Li, M.-H.; Eur. J. Med. Chem. 2012, 47, 560-572; Plantinga, A.; et al., ACS Med. Chem. Lett. 2011, 2, 363-367; Cooper, M. A.; et al., Bioorg. Med. Chem. 2000, 8, 2609-2616; each herein incorporated by reference in its entirety)). The experiments employed SPR spectroscopy to determine the binding constant KD for dendrimer-based multivalent vancomycin conjugates to the cell wall ligands immobilized on the chip surface as a model for the bacterial cell surface. The model surface was prepared by utilizing each CMS sensor chip which was treated to present N^α-Ac-Lys-(D)-Ala-(D)-Ala or N^α-Ac-(D)-Ala-(D)-Lac as the cell wall precursor on the surface, each representing a vancomycin-susceptible and vancomycin-resistant cell wall model, respectively (see, e.g., Rao, J.; et al., Chem. Biol. (Cambridge, Mass., U.S.) 1999, 6, 353-359; Rao, J.; et al., J. Am. Chem. Soc. 1999, 121, 2629-2630; each herein incorporated by reference in its entirety)). Such a peptide-presenting chip was prepared typically following a N-(3-dimethylaminopropyl)-N′-ethylcarbodiimide (EDC)-based amide coupling method at a surface peptide density of 0.12 ng/mm^2 (equivalent to 2.2×10^11 molecules/mm^2) (see, e.g., Hong, S.; et al., Chem. Biol. (Cambridge, Mass., U.S.) 2007, 14, 107-115; Plantinga, A.; et al., ACS Med. Chem. Lett. 2011, 2, 363-367; each herein incorporated by reference in its entirety)).
SPR spectroscopy. […]

[8] = system: N^α-Ac-Lys-(D)-Ala-(D)-Lac peptide; settings: cited from earlier work
bacterial cells = settings: reported in literature; cited from earlier work
[9] = target: N^α-Ac-Lys-(D)-Ala-(D)-Ala peptide; assay: SPR; vancomycin is the reference
[10] = target: N^α-Ac-Lys-(D)-Ala-(D)-Lac peptide; assay: SPR; vancomycin is the reference
[11] = target: N^α-Ac-Lys-(D)-Ala-(D)-Ala peptide; assay: SPR (Biacore X), peptide immobilised on CM5 chip, Scatchard analysis
[12] = target: N^α-Ac-Lys-(D)-Ala-(D)-Lac peptide; assay: as above

Q: For II Ac-G5-(V)2.3, which valency-corrected β (= β ÷ n) [1] is on record?
A: 122

Q: What about the β (multivalent binding enhancement = KD vancomycin ÷ KD G5-(V)n) [1] of the same molecule?
A: 280

Q: And the valency-corrected β (= β ÷ n) [2]?
A: 81000

Q: What about the β (multivalent binding enhancement = KD vancomycin ÷ KD G5-(V)n) [2] of the same molecule?
A: 190000

Q: And the Kd [3]?
A: 0.0034 µM

Q: What about the koff [3] of the same molecule?
A: 0.00045 s⁻¹

Q: And the kon [3]?
A: 150000 M⁻¹ s⁻¹

Q: And the Kd [4]?
A: 0.0081 µM

Q: And the koff [4]?
A: 0.00041 s⁻¹

Q: And the kon [4]?
A: 320000 M⁻¹ s⁻¹

Q: For `CN[C@H](CC(C)C)C(=O)N[C@H]1C(=O)N[C@@H](CC(N)=O)C(=O)N[C@H]2C(=O)N[C@H]3C(=O)N[C@H](C(=O)N[C@H](C(=O)O)c4cc(O)cc(O)c4-c4cc3ccc4O)[C@H](O)c3ccc(c(Cl)c3)Oc3cc2cc(c3O[C@@H]2O[C@H](CO)[C@@H](O)[C@H](O)[C@H]2O[C@H]2C[C@](C)(N)[C@H](O)[C@H](C)O2)Oc2ccc(cc2Cl)[C@H]1O` [Vancomycin, vancomycin], which Kd [5] is on record?
A: ~1 µM

Q: What about the Kd ([6]; (D)-Ala-(D)-Lac surface, mean (SEM), vancomycin by Scatchard analysis) of the same molecule?
A: 1500 µM and ~1500 µM

Q: What about the “SPR binding response to the (D)-Ala-(D)-Lac surface” value ([6]; in words) of the same molecule?
A: very low responses

Q: And the “concentration at which optical density decreased to the background level” value (Staphylococcus aureus)?
A: ≥ 0.1 µM

Q: And the Kd [7]?
A: 0.95 µM

Q: And the Kd ([7]; mean (SEM), vancomycin by Scatchard analysis)?
A: 0.95 µM

Q: And the “SPR binding response to the (D)-Ala-(D)-Ala surface” value ([7]; in words, vancomycin at concentrations as low as 2 nM)?
A: no detectable response

Q: What about the “reduction in affinity of (D)-Ala-(D)-Lac surface to free vancomycin” value ([8]; relative to (D)-Ala-(D)-Ala, reported) of the same molecule?
A: ~1000 fold

Q: What about the Kd ([8]; vancomycin to (D)-Ala-(D)-Lac, literature) of the same molecule?
A: ~1000 µM and 1700 µM

Q: For III Ac-G5-(V)3.5, which valency-corrected β (= β ÷ n) [2] is on record?
A: 210000

Q: And the β (multivalent binding enhancement = KD vancomycin ÷ KD G5-(V)n) [2]?
A: 750000

Q: What about the Kd [4] of the same molecule?
A: 0.002 µM

Q: And the koff [4]?
A: 0.00045 s⁻¹

Q: What about the kon [4] of the same molecule?
A: 640000 M⁻¹ s⁻¹

Q: For `CCCCCCCCCCNCCN[C@@]1(C)C[C@H](O[C@H]2[C@H](Oc3c4cc5cc3Oc3ccc(cc3Cl)[C@@H](O)[C@@H](NC(=O)[C@@H](CC(C)C)NC)C(=O)N[C@@H](CC(N)=O)C(=O)N[C@H]5C(=O)N[C@H]3C(=O)N[C@H](C(=O)N[C@H](C(=O)O)c5cc(O)c(CNCP(=O)(O)O)c(O)c5-c5cc3ccc5O)[C@H](O)c3ccc(c(Cl)c3)O4)O[C@H](CO)[C@@H](O)[C@@H]2O)O[C@@H](C)[C@H]1O` [telavancin], which “bactericidal activity / cell lysis” value (bacterial cells) is on record?
A: potent bactericidal activity without causing cell lysis

Q: For I Ac-G5-(V)1.2, which valency-corrected β (= β ÷ n) [2] is on record?
A: 18000

Q: And the β (multivalent binding enhancement = KD vancomycin ÷ KD G5-(V)n) [2]?
A: 210000

Q: And the Kd [4]?
A: 0.0071 µM

Q: And the koff [4]?
A: 0.00066 s⁻¹

Q: What about the kon [4] of the same molecule?
A: 98000 M⁻¹ s⁻¹

Q: What does the source list for VI GA-G5-(V)6.0?
A: valency-corrected β (= β ÷ n) [1]: 293; β (multivalent binding enhancement = KD vancomycin ÷ KD G5-(V)n) [1]: 1760; valency-corrected β (= β ÷ n) [2]: 74000; β (multivalent binding enhancement = KD vancomycin ÷ KD G5-(V)n) [2]: 440000; Kd [3]: 0.00054 µM; koff [3]: 0.00036 s⁻¹; kon [3]: 670000 M⁻¹ s⁻¹; Kd [4]: 0.0034 µM; koff [4]: 0.0028 s⁻¹; kon [4]: 1.8e+06 M⁻¹ s⁻¹

Q: With IV Ac-G5-(V)5.8 as the molecule, how does the valency-corrected β (= β ÷ n) [1] read?
A: 655

Q: What about the β (multivalent binding enhancement = KD vancomycin ÷ KD G5-(V)n) [1] of the same molecule?
A: 3800

Q: What about the valency-corrected β (= β ÷ n) [2] of the same molecule?
A: 150000

Q: And the β (multivalent binding enhancement = KD vancomycin ÷ KD G5-(V)n) [2]?
A: 880000

Q: What about the Kd [3] of the same molecule?
A: 0.00025 µM

Q: And the koff [3]?
A: 4.4e-05 s⁻¹

Q: What about the kon [3] of the same molecule?
A: 450000 M⁻¹ s⁻¹

Q: And the Kd [4]?
A: 0.0017 µM

Q: And the koff [4]?
A: 0.00029 s⁻¹

Q: And the kon [4]?
A: 690000 M⁻¹ s⁻¹

Q: What does the source list for Vancomycin (peptide)?
A: β (multivalent binding enhancement = KD vancomycin ÷ KD G5-(V)n) [9]: 1; β (multivalent binding enhancement = KD vancomycin ÷ KD G5-(V)n) [10]: 1; Kd [11]: 0.95 µM; Kd [12]: 1500 µM
